Assay results reported in PMC314469, “Protein Interaction Networks by Proteome Peptide Scanning” (PLoS Biology, 2004).

T1: Rvs167 SH3 (RV167_YEAST), P39743
T1 chain: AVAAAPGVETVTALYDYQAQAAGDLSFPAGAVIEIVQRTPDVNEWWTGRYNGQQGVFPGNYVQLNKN

T2: Boi1 SH3 (BOI1_YEAST), P38041
T2 chain: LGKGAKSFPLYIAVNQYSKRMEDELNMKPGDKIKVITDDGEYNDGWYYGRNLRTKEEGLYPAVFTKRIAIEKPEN

T3: Yfr024 SH3 (LSB3_YEAST), P43603
T3 chain: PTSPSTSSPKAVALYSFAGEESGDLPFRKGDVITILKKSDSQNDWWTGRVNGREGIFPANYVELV

T4: Yhr016c SH3 (YSC84_YEAST), P32793
T4 chain: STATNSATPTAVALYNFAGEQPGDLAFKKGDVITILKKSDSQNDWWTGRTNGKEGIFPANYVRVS

T5: Boi2 SH3 (BOI2_YEAST), P39969
T5 chain: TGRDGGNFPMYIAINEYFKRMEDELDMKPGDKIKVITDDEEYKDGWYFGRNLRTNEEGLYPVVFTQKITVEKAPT


Tests used:
Assay in all cases: SPOT array
[1] = target: T1, Rvs167 SH3 (RV167_YEAST), P39743
[2] = target: T2, Boi1 SH3 (BOI1_YEAST), P38041
[3] = target: T3, Yfr024 SH3 (LSB3_YEAST), P43603
[4] = target: T4, Yhr016c SH3 (YSC84_YEAST), P32793
[5] = target: T5, Boi2 SH3 (BOI2_YEAST), P39969

| Binder | normalised SPOT signal, Boehringer light units (BLU); mean over the file's lines of this peptide [1] | normalised SPOT signal, Boehringer light units (BLU); mean over the file's lines of this peptide [2] | normalised SPOT signal, Boehringer light units (BLU); mean over the file's lines of this peptide [3] | normalised SPOT signal, Boehringer light units (BLU); mean over the file's lines of this peptide [4] | normalised SPOT signal, Boehringer light units (BLU); mean over the file's lines of this peptide [5] |
| --- | --- | --- | --- | --- | --- |
| INQPSTPKKLKRKS [YDR501W 316-329] | 62.6 | 152 | 2480 | 126 | 22.2 |
| IPTPSKPLKKRKKR [YCL027W 390-403] | 85 | 97.5 | 1580 | 213 | 50.2 |
| IQHPFLPRKIPIIT [YGR094W 408-421] | 35 | 327 | 1120 | 250 | 192 |
| IRYPVTPNKASLDR [YOR384W 132-145] | 41.2 | 86.7 | 94.5 | 207 | 166 |
| ISNPSSPAKTKRDI [YMR137C 188-201] | 17.6 | 90.8 | 108 | 130 | 48.8 |
| ISRPVQPFKVGSIG [YPR185W 368-381] | 22.7 | 60.8 | 1120 | 185 | 79.1 |
| ISTPEVPKKKIKTG [YIL010W 28-41] | 0 | 275 | 4970 | 226 | 23.9 |
| ISTPPPPPKMAIPA [YFR019W 390-403] | 26.6 | 110 | 335 | 189 | 34.4 |
| ITLPRRPAKKIQLG [YBR122C 41-54] | 13700 | 150 | 48600 | 36800 | 106 |
| ITSPPLPPRADSIE [YMR192W 122-135] | 31300 | 181 | 39300 | 93200 | 35.5 |
| IVNPFIPRRPYSNV [YDR409W 859-872] | 650 | 1120 | 7710 | 1650 | 142 |
| IYTPYIPFRNSRTW [YLR240W 75-88] | 474 | 5520 | 3280 | 683 | 1450 |
| KALPKEPKKLLPNS [YIR010W 422-435] | 44.4 | 208 | 284 | 2810 | 63.5 |
| KDAPIEPPKYMGMG [YOR346W 673-686] | 39.9 | 119 | 43.8 | 99.2 | 74.7 |
| KDHPYDPEKDSVLK [YGR020C 97-110] | 21.7 | 51.3 | 0 | 0 | 3.7 |
| KDYPLSPPKLTFTP [YMR022W 62-75] | 25.5 | 73 | 16 | 10.6 | 33.9 |
| KELPEFPIKKYHKR [YMR266W 741-754] | 29.9 | 119 | 1070 | 6.2 | 22 |
| KERPKPPNKGDVGR [YOR233W 333-346] | 10.8 | 168 | 326 | 60.1 | 23.8 |
| KFHPPEPYKGKGIY [YHR147C 187-200] | 53.2 | 96.1 | 45.7 | 114 | 38.2 |
| KFIPNKPYRQFNTW [YGR019W 339-352] | 51.7 | 30.9 | 1220 | 417 | 55.9 |
| KGAPFFPNKTFRKL [YPR144C 138-151] | 83.7 | 142 | 995 | 792 | 64.9 |
| KHAPFIPVKPALEK [YPR095C 158-171] | 21.7 | 92 | 907 | 65.2 | 27.4 |
